Values joined by “and” are separate entries in the source; they are usually repeats but may differ in a detail not shown here. Equal entries are not always repeated.
Target: Biotinylated C3b (human) (UniProt P01024)
Assay: BLI; biotinylated C3b on streptavidin sensors; FPht variants at 100 to 1.56 μg/mL, 60 s steps; 30°C; 20 mM MES pH 6.0, 100 mM NaCl, 0.05% Tween, 1 mg/mL BSA; steady state 1:1 fit (for WT also kinetic analysis)

Biotinylated C3b (human), sequence (P01024 23-667, chain 1 of 2): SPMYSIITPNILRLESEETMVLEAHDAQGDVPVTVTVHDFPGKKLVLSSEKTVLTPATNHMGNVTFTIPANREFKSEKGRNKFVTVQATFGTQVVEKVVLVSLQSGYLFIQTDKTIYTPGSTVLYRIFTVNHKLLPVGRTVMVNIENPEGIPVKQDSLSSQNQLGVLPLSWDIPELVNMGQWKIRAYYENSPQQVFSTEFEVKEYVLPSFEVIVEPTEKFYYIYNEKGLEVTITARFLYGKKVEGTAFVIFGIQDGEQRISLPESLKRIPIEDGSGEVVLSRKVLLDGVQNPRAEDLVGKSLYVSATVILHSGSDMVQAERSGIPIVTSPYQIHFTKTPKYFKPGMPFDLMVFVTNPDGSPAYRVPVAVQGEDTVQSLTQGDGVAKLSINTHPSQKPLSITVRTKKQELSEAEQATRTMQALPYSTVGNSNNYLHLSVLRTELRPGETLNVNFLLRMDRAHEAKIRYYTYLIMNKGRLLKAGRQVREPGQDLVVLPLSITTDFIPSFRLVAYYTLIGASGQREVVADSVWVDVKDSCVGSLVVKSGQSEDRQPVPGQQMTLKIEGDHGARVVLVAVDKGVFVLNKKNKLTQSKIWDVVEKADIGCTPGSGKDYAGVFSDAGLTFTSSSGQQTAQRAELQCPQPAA
Biotinylated C3b (human), sequence (P01024 749-1663, chain 2 of 2): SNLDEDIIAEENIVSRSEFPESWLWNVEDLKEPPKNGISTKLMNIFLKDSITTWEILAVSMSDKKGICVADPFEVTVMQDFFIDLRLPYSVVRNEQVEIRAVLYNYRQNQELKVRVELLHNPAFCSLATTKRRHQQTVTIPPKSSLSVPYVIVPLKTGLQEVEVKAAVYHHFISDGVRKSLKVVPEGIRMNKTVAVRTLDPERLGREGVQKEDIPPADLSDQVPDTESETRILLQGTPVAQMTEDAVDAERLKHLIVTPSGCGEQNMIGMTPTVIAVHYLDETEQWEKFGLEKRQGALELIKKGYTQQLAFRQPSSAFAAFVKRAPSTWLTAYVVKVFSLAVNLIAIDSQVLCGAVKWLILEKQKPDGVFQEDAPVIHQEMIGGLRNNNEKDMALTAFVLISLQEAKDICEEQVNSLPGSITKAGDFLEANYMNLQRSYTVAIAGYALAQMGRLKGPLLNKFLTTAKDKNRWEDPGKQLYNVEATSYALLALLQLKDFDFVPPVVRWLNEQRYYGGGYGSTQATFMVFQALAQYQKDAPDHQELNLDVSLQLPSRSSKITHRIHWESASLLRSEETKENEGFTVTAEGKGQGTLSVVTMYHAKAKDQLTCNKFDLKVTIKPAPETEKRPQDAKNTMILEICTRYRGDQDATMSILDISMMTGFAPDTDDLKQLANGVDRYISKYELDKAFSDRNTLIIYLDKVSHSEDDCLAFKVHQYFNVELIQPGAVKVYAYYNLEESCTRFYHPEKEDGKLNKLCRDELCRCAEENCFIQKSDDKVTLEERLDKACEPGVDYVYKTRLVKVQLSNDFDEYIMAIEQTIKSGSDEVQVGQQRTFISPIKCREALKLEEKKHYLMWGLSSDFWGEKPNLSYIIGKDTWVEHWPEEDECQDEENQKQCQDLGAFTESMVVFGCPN

“FPht, monomeric FP head-tail protein from co-expression of FPh and FPt (complex)” was tested, and the Kd was 320 nM and 350 nM.
